According to publication PMC9165289, “Theranostic PSMA ligands with optimized backbones for intraoperative multimodal imaging and photodynamic therapy of prostate cancer” (European Journal of Nuclear Medicine and Molecular Imaging, 2022):
Read-outs that look alike come from different tables or passages of the source.

Key:
[1] = ex vivo biodistribution of 111In-labeled ligands; parameters: species or system BALB/c nude mice; conditions: male, BALB/c nude, mouse, iv, 0.3 nmol, total radioactivity, 2 h p.i.; for tissue uptake at 2 h: 10 MBq/mouse, i.v.
Method: (§1) All animal experiments were approved by the institutional Animal Welfare Committee of the Radboud University Medical Center and were conducted in accordance to the guidelines of the Revised Dutch Act on Animal Experimentation. Animal experiments were performed in 8–10 weeks old male BALB/c nude mice (Janvier). The mice were housed in individually ventilated cages (Blue line IVC, 3–5 mice per cage), under standard non-sterile conditions with cage enrichment present. There was free access to chlorophyll-free animal chow (Sniff Voer) and water. Mice were subcutaneously inoculated with 3.0 × 10^6 LS174T-PSMA cells in the right flank and 1.5 × 10^6 LS174T WT cells in the left flank (diluted in 200-µl RPMI 1640 medium). When xenografts were approximately 0.5 cm^3 (10–14 days after injection), mice were block-randomized into groups based on tumor size. The researchers were not blinded for the experimental groups.
(§2) Mice were intravenously injected with 0.3 nmol PSMA ligand, labeled with 10 MBq ^111In (molar activity 33.3 MBq/nmol) in PBS + 0.5% (w/v) BSA. For the ex vivo biodistribution, five groups (one group for each ligand) of four mice were included. Two hours p.i., all mice were euthanized by CO2/O2-asphyxiation. For two mice of each group (2 mice/ligand), background-subtracted fluorescence images were acquired with the IVIS imaging system (Xenogen VivoVision IVIS Lumina II, PerkinElmer), with a 640-nm excitation filter and a Cy5.5 emission filter and an acquisition time of 10 s. Next, µSPECT/CT imaging was performed in the same two mice per group, with a 1.0-mm diameter pinhole mouse collimator tube (U-SPECT II, MILabs). Mice were scanned for 30 min followed by a CT scan for anatomical reference (spatial resolution 160 μm, 615 μA, 65 kV). MILabs reconstruction software was used to reconstruct the µSPECT/CT scans, via an ordered-subset expectation maximization algorithm, energy windows 154–188 keV and 220–270 keV, 3 iterations, 16 subsets, and voxel size of 0.75 mm. SPECT/CT maximum intensity projections (MIPs) were created using the Inveon Research Workplace software (Siemens Preclinical Solutions, version 4.1). NIR fluorescence images were analyzed using Living Image software (PerkinElmer, version 4.2). After imaging, relevant tissues were dissected, weighed, and measured for radioactivity in a gamma-counter (2480 WIZARD^2 Automatic Gamma Counter, PerkinElmer). In addition, a blocking experiment with PSMA-N064 and PSMA-617 was performed. Full experimental procedures and results can be found in the supplementary data (Page 5, Supplementary Fig. 3).

[2] = system: LS174T-PSMA and LS174T wildtype xenografts; assay: ex vivo biodistribution of 111In-labeled ligands; parameters: species or system BALB/c nude mice; conditions: 0.3 nmol, 2 h p.i.
Method: as §1, §2

[3] = system: LS174T-PSMA cells; assay: in vitro targeted PDT assay (CellTiter-Glo); assay type: cell-based, human; conditions: 30 nM ligand, irradiated with 100 J/cm^2
Method: LS174T wildtype (LS174T-WT) and LS174T-PSMA cells were cultured to confluency in 48-well plates. Cells were incubated (2 h, 5% CO2, 37 °C) with 30-nM PSMA ligand in binding buffer (RPMI 1640 + 0.5% BSA) in triplicate. After washing with PBS, a 0.5-ml binding buffer was added to each well, and cells were irradiated with a NIR light-emitting diode (690 ± 20 nm). The typical forward voltage was 2.6 V creating a power output of 490 mW using 126 individual LED bulbs to ensure homogenous illumination of the area of interest predefined as 5 × 3 cm. The cells were irradiated at NIR radiant exposures of 100 J/cm^2 ([…]) and subsequently incubated for 1 h at 37 °C. Cells that only received the PSMA ligand, only the NIR light, or neither the ligand nor the light were included as controls. Cytotoxic effects of PDT with PSMA ligands were determined with a CellTiter-Glo™ assay (Promega Benelux) according to the manufacturer’s instructions. The binding buffer was replaced with 100-µl fresh binding buffer and 100-µl CellTiter-Glo® 2.0 Assay. Plates were shaken (2 min) and incubated for 10 min at room temperature. Next, luminescence was measured in a plate reader (Tecan Infinite® 200 PRO) to determine the metabolic activity of the cells.

[4] = system: LS174T-PSMA cells; assay: in vitro binding and internalization assay; assay type: cell-based, human; conditions: 37 °C, 2 h
Method: The binding and internalization characteristics of the ligands were determined using LS174T-PSMA cells. Cells were cultured to confluency in 6-well plates followed by incubation with 50,000 counts per minute of ^111In-labeled ligand (0.1–0.25 pmol/well) in 1-ml RPMI + 0.5% BSA (37 °C, 2 h). Non-specific binding was determined by coincubation with 2(phosphonomethyl)-pentane-1,5-dioic acid (2-PMPA, 21.57 µM). PSMA-specific binding was defined as total binding minus the non-specific binding. To retrieve the membrane-bound fraction, cells were washed twice with PBS and incubated for 10 min at 0 °C with acid buffer (154-mM NaCl, 0.1 M acetic acid, pH 2.6). After incubation, the membrane-bound fraction was collected. Then, cells were washed and lysed with 0.1 M NaOH, and the cell lysate (intracellular activity) was collected. Intracellular and membrane-bound activity fractions were measured in a gamma-counter (2480 WIZARD^2 Automatic Gamma Counter, PerkinElmer).

[5] = LS174T wildtype tumor, n=4, read-out: Biodistribution Tumor- LS174T
[6] = LS174T-PSMA tumor, n=4, read-out: Biodistribution Tumor+ LS174T-PSMA
[7] = adrenals, n=4, read-out: Biodistribution Adrenals
[8] = blood, n=4, read-out: Biodistribution Blood
[9] = bone marrow, n=4, read-out: Biodistribution Bone marrow
[10] = bone, n=4, read-out: Biodistribution Bone
[11] = duodenum, n=4, read-out: Biodistribution Duodenum
[12] = heart, n=4, read-out: Biodistribution Heart
[13] = kidney, n=4, read-out: Biodistribution Kidney
[14] = liver, n=4, read-out: Biodistribution Liver
[15] = lung, n=4, read-out: Biodistribution Lung
[16] = muscle, n=4, read-out: Biodistribution Muscle
[17] = pancreas, n=4, read-out: Biodistribution Pancreas
[18] = prostate, n=4, read-out: Biodistribution Prostate
[19] = salivary glands, n=4, read-out: Biodistribution Salivary glands
[20] = spleen, n=4, read-out: Biodistribution Spleen
[21] = stomach, n=4, read-out: Biodistribution Stomach
[22] = tumor (LS174T-PSMA xenograft) / blood, read-out: Tumor/Blood ratio
[23] = tumor (LS174T-PSMA xenograft) / kidney, read-out: Tumor/Kidney ratio
[24] = tumor (LS174T-PSMA xenograft) / liver, read-out: Tumor/Liver ratio
[25] = tumor (LS174T-PSMA xenograft) / spleen, read-out: Tumor/Spleen ratio

| SMILES | tissue uptake at 2 h [1, 5] | tissue uptake at 2 h [1, 6] | tissue uptake at 2 h [1, 7] | tissue uptake at 2 h [1, 8] | tissue uptake at 2 h [1, 9] | tissue uptake at 2 h [1, 10] | tissue uptake at 2 h [1, 11] | tissue uptake at 2 h [1, 12] | tissue uptake at 2 h [1, 13] | tissue uptake at 2 h [1, 14] | tissue uptake at 2 h [1, 15] | tissue uptake at 2 h [1, 16] | tissue uptake at 2 h [1, 17] | tissue uptake at 2 h [1, 18] | tissue uptake at 2 h [1, 19] | tissue uptake at 2 h [1, 20] | tissue uptake at 2 h [1, 21] | tissue to tissue ratio at 2 h [1, 22] | tissue to tissue ratio at 2 h [1, 23] | tissue to tissue ratio at 2 h [1, 24] | also measured |
| --- | --- | --- | --- | --- | --- | --- | --- | --- | --- | --- | --- | --- | --- | --- | --- | --- | --- | --- | --- | --- | --- |
| C[Si](C)(CCC[N+](CCCS(=O)(=O)[O-])(CCCS(=O)(=O)O)CCCS(=O)(=O)O)O[Si]1(O[Si](C)(C)CCC[N+](CCCS(=O)(=O)[O-])(CCCS(=O)(=O)O)CCCS(=O)(=O)O)n2c3c4ccccc4c2N=C2N=C(N=c4c5c(OCCCOC(=O)NCCCCCC(=O)NCCCC[C@H](NC(=O)CCC(C(=O)O)N6CCN(CC(=O)O)CCN(CC(=O)O)CCN(CC(=O)O)CC6)C(=O)N[C@@H](Cc6ccccc6)C(=O)N[C@@H](CCC(=O)O)C(=O)N[C@@H](CCC(=O)O)C(=O)NCCCCCC(=O)NCCCC[C@H](NC(=O)N[C@@H](CCC(=O)O)C(=O)O)C(=O)O)cccc5c(n41)=NC1=NC(=N3)c3ccccc31)c1ccccc12 (some centres unmarked) [PSMA-N064] | 0.7 ± 0.3 %ID/g | 14 ± 2 %ID/g | 1.6 ± 0.4 %ID/g | 0.3 ± 0.1 %ID/g | 0.2 ± 0.1 %ID/g | 0.7 ± 0.1 %ID/g | 0.3 ± 0.1 %ID/g | 0.4 ± 0.1 %ID/g | 74 ± 17 %ID/g | 0.9 ± 0.2 %ID/g | 0.5 ± 0.1 %ID/g | 0.1 ± 0.04 %ID/g | 0.3 ± 0.05 %ID/g | 0.6 ± 0.1 %ID/g | 0.4 ± 0.04 %ID/g | 1.4 ± 0.3 %ID/g | 0.4 ± 0.1 %ID/g | 54 ± 14.7 | 0.2 ± 0.03 | 15.6 ± 3.6 | tissue to tissue ratio at 2 h [1, 25]: 9.6 ± 0.4; Tumor/Negative tumor ratio [2]: 23.8 ± 9.7; Tumor/Prostate ratio [2]: 21.9 ± 1.7; Tumor/Salivary gland ratio [2]: 33.8 ± 6.6 |
| C[Si](C)(CCC[N+](CCCS(=O)(=O)[O-])(CCCS(=O)(=O)O)CCCS(=O)(=O)O)O[Si]1(O[Si](C)(C)CCC[N+](CCCS(=O)(=O)[O-])(CCCS(=O)(=O)O)CCCS(=O)(=O)O)n2c3c4ccccc4c2N=C2N=C(N=c4c5c(OCCCOC(=O)NCCCCCC(=O)NCCCC[C@H](NC(=O)CN6CCN(CC(=O)O)CCN(CC(=O)O)CCN(CC(=O)O)CC6)C(=O)NCCCC[C@H](NC(=O)[C@H](CCC(=O)O)NC(=O)c6ccccc6)C(=O)NC[C@H]6CC[C@H](C(=O)N[C@@H](Cc7ccc8ccccc8c7)C(=O)NCCCC[C@H](NC(=O)N[C@@H](CCC(=O)O)C(=O)O)C(=O)O)CC6)cccc5c(n41)=NC1=NC(=N3)c3ccccc31)c1ccccc12 [PSMA-N03] | 1.1 ± 0.2 %ID/g | 20 ± 2 %ID/g | 2.1 ± 0.8 %ID/g | 0.7 ± 0.1 %ID/g | 0.2 ± 0.1 %ID/g | 0.5 ± 0.1 %ID/g | 0.4 ± 0.03 %ID/g | 0.4 ± 0.04 %ID/g | 142 ± 11 %ID/g | 1.3 ± 0.1 %ID/g | 1.8 ± 0.4 %ID/g | 0.2 ± 0.1 %ID/g | 0.3 ± 0.02 %ID/g | 0.6 ± 0.2 %ID/g | 0.6 ± 0.1 %ID/g | 1.5 ± 0.4 %ID/g | 0.6 ± 0.1 %ID/g | 27 ± 2.9 | 0.2 ± 0.02 | 15.1 ± 1.7 | cell viability [3]: 25% ± 4%; tissue to tissue ratio at 2 h [1, 25]: 14.3 ± 4; Biodistribution Kidney ([2]; 10 MBq/mouse, i.v., n=4): 142.4 ± 10.6 %ID/g; Biodistribution Tumor+ LS174T-PSMA ([2]; 10 MBq/mouse, i.v., n=4): 19.8 ± 1.9 %ID/g; Biodistribution Tumor+ LS174T-PSMA ([2]; 10 MBq/mouse, i.v., n=4, listed as N03): ≥ 20 %ID/g; Tumor/Negative tumor ratio [2]: 19.9 ± 6.3; Tumor/Prostate ratio [2]: 35.1 ± 10.7; Tumor/Salivary gland ratio [2]: 35.0 ± 5.0; internalization percentage (percentage of cell-associated ligand that was internalized) [4]: 73–90% |
